Source: patent publication US20220396758A1 (University of California, published 2022)

Biological target: T1, covalently-linked trimer of an N-terminal truncated ClpX variant (ClpX-ΔN3) (E. coli, UniProt A7ZIJ6 62-424)
T1 construct: About 30-100 nM was present in the trans solution with ATP; also called synthetically designed trimer of ClpX subunits expressed as a single chain
Experiment: nanopore ionic current recording; substrate cis, ClpX/ATP trans

B1: substrate protein S1 (single N-terminal Smt3 domain, 65-amino-acid charged flexible tail, C-terminal 11 amino acid ssrA tag) (other)
chain: MGSSHHHHHHGSGLVPRGSASMSDSEVNQEAKPEVKPEVKPETHINLKVSDGSSEIFFKIKKTTPLRRLMEAFAKRQGKEMDSLRFLYDGIRIQADQTPEDLDMEDNDIIEAHREQIGGGGSSGGSGGSGSSGDGGSSGGSGGSGSSGDGGSSGGSGGDGSSGDGGSDGDSDGSDGDGDSDGDDAANDENYALAA
notes: Engineered fusion expressed in E. coli BL21 (DE3)*; About 1-2 uM was added to the cis well; also called engineered Smt3 protein
  binding result: binds
